The results in this text go back to US20230052153A1 (NEWSOUTH INNOVATIONS, published 2023).

This experiment deals with T1, human FcγRIIa receptor (human, UniProt P12318 34-317).
T1 construct: whole, on cells; also called CD32
T1 sequence (looked up): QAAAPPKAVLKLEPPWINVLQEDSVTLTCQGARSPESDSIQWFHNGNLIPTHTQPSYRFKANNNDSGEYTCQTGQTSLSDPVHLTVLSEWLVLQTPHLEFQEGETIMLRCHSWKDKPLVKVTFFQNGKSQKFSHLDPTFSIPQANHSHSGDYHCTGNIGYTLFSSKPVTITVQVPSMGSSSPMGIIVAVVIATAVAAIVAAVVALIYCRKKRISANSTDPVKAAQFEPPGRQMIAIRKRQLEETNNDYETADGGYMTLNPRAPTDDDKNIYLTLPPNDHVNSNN
Description: flow cytometry on human platelets, 2 µM scFv, detected with anti-c-Myc-AF-488. How it is done: Platelet-rich plasma (PRP) was obtained from whole blood after centrifugation at 200×g for 10 minutes. Washing/Suspension buffer (PBS, 0.5% BSA, 25 mM EDTA, pH 6.8) was used for platelet preparation throughout the experiment. 4 μl of PRP was incubated with HRU molecules (2 μM) for 30 minutes. Cells were washed once with 500 μl of buffer (PBS, 0.5% BSA, 25 mM EDTA, pH 6.8) and incubated with anti-c-Myc-AF-488. After washing, platelets were suspended in 200 μl of PBS and analyzed by flow cytometry (CantoII, BD Biosciences). Anti-c-Myc-AF-488 in the absence of HRU was used as negative control.

B1: HRU2 (HRU1 linked to bivalirudin) (scFv)
scFv: EVKLVESGPELKKPGETVKISCKASGYTFTNYGMNWVKQAPGKGLKWMGWLNTYTGESIYPDDFKGRFAFSLETSASTAYLQINNLKSEDTATYFCARGDYGYDDPLDYWGQGTSVTVSSGGGGSGGGGSGGGGSDIVMTQAPPSVPVTPGESVSISCRSSKSLLHTNGNTYLHWFLQRPGQSPRLLIYRMSVLASGVPDRFSGSGSGTAFTLSISRVEAEDVGVYYCMQHLEYPLTFGAGTKLEIKRAGGGGSGGGGSGGGGFPRPGGGGNGDFEEIPEEYL
notes: scFv fused to bivalirudin; also called H2
In the case of B1, the binding result was “binds”.

B2: HRU4 (HRU1 with mutations) (scFv)
scFv: EVQLVESGPELKKPGETVKISCKASGYTFTNYGMNWVKQAPGKGLKWMGWLNTYTGESIYPDDFKGRFAFSLETSASTAYLQINNLKSEDTATYFCARGDYGYDDPLDYWGQGTSVTVSSGGGGSGGGGSGGGGSDIVMTQAPPSVPVTPGESVSISCRSSKSLLHTNGNTYLHWFLQKPGQSPRLLIYRMSVLASGVPDRFSGSGSGTDFTLKISRVEAEDVGVYYCMQHLEYPLTFGAGTKLEIKRAEQKLISEEDL
notes: also called H4
With B2, the binding result was “binds”.
